In patent US20170313769A1 (Pfizer, published 2017):
Residue numbers refer to the chain shown, from its start.

B1: humanized parent of CTI-AF1 before affinity maturation (antibody, V domains shown)
VH: QVQLVQSGAEVKKPGSSVKVSCKASGYTFSRYWMHWVRQAPGQGLEWMGHIDPSDSYTYYNQKFKGRVTITADESTSTAYMELSSLRSEDTAVYYCARWDYGNLLFEYWGQGTLVTVSS
VL: DIQMTQSPSSLSASVGDRVTITCRTSQDISNYLNWYQQKPGKAFKLLIYSTSRLHSGVPSRFSGSGSGTDFTLTISSLQPEDFATYYCQQGHTLPLTFGGGTKVEIK
notes: no mutations were made in VH
B2: CTI-AF20 (antibody, human IgG1, kappa, V domains shown)
VH: B1 VH
VL: DIQMTQSPSSLSASVGDRVTITCRTSQDISSYLNWYQQKPGKAFKLLIYTTSRLRSGVPSRFSGSGSGTDFTLTISSLQPEDFATYYCQQGIVLPITFGGGTKVEIKR
B3: CTI-AF15 (antibody, human IgG1, kappa, V domains shown)
VH: B1 VH
VL: B2 VL with T50S, R55H, V93I
B4: CTI-AF8 (antibody, human IgG1, kappa, V domains shown)
VH: B1 VH
VL: B2 VL with S30G, S31N, T50S, R55H, G91S, I92T, V93I, I96L
B5: CTI-AF9 (antibody, human IgG1, kappa, V domains shown)
VH: B1 VH
VL: B2 VL with S31N, Y49F, T50S, R55H, G91S, I92T, V93I, I96L
B6: CTI-AF14 (antibody, human IgG1, kappa, V domains shown)
VH: B1 VH
VL: B2 VL with S31N, Y49F, T50S, R55H, V93I
B7: CTI-AF16 (antibody, human IgG1, kappa, V domains shown)
VH: B1 VH
VL: B2 VL with S31N, V93I
B8: CTI-AF27 (antibody, human IgG1, kappa, V domains shown)
VH: B1 VH
VL: B2 VL with S30D, S31N, Y32F, N34Q, Y49F, T50S, R53K, R55H, V93I
B9: CTI-AF5 (antibody, human IgG1, kappa, V domains shown)
VH: B1 VH
VL: B2 VL with S31N
B10: CTI-AF4 (antibody, human IgG1, kappa, V domains shown)
VH: B1 VH
VL: B2 VL with T50S, R55H
B11: CTI-AF10 (antibody, human IgG1, kappa, V domains shown)
VH: B1 VH
VL: B2 VL with T50S, R55H, G91S, I92T, V93I, I96L
B12: CTI-AF21 (antibody, human IgG1, kappa, V domains shown)
VH: B1 VH
VL: B2 VL with S30D, S31N, Y32F, N34Q, Y49F, T50S, R53K, R55H
B13: CTI-AF23 (antibody, human IgG1, kappa, V domains shown)
VH: B1 VH
VL: B2 VL with G91S, I92T, V93I, I96L

Target: T1, Human IFNβ (mature human interferon beta) (human, UniProt P01574 22-187)
T1 construct: Recombinant human IFNβ (Peprotech for SPR); In some functional assays it is endogenous IFNβ secreted by primary human cells; also called hIFN-β; recombinant human IFNβ
Assay: SPR (affinity maturation); before the light chain mutations (parent antibody)

T1 sequence (P01574 22-187): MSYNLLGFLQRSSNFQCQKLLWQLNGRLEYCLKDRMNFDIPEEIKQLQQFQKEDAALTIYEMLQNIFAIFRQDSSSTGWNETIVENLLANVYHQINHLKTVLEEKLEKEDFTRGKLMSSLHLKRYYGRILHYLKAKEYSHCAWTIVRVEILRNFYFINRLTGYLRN

B1 was tested, and the Kd was 25 nM.

Target: T1, Human IFNβ (mature human interferon …)
Assay: SPR, Biacore T200; antibody amine-coupled on CM5 chip, human IFNβ as analyte, 1:1 model

Work on B2 yielded a Kd of 0.335 nM.

Target: T1, Human IFNβ (mature human interferon …)
Assay: cell-based or functional assay

First: B3
Second: B6
The “IC50 (pM) pSTAT1 Inhibition” value of the first is higher: 80 pM for the first, 30 pM for the second.

Going from B2 to B8, the “IC50 (pM) pSTAT1 Inhibition” value rises from 20 pM to 70 pM.

B9 was tested, and the “IC50 (pM) pSTAT1 Inhibition” value was 10 pM.

Compared with B4, B5 is lower in “IC50 (pM) ISRE Neutralization” value: 460 pM for the first, 75 pM for the second.

With B7 the “IC50 (pM) ISRE Neutralization” value was 14 pM.

Target: T1, Human IFNβ (mature human interferon …)
Assay: Octet (BLI) response rank; method not described

Going from B3 to B10, the “Response rank (Octet)” value rises from 3 rank to 4 rank.

First: B4
Second: B5
The “Response rank (Octet)” value of the first is lower: 6 rank for the first, 12 rank for the second.

Going from B11 to B6, the “Response rank (Octet)” value rises from 5 rank to 7 rank.

Compared with B7, B2 is higher in “Response rank (Octet)” value: 2 rank for the first, 8 rank for the second.

Going from B12 to B13, the “Response rank (Octet)” value falls from 11 rank to 9 rank.

In the case of B8, the “Response rank (Octet)” value is reported as 10 rank.
